Measured values from the supplement of paper PMC10724198.
± gives the standard deviation of the averaged measurements.

What was measured:
Assay in all cases: protein stability index of tFT-peptide fusion (C-terminal peptide) (PSI (0-1 scale)); higher = more stable (slower turnover)
[1] = tested on: Saccharomyces cerevisiae; conditions: temperature: 30 C
Experimental: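 MPS profiling in S. cerevisiae of the yeast C-terminome library: the last 12 aa of each annotated ORF are fused to the C-terminus of a sfGFP-mCherry timer, after a GGGS linker. Cells are FACS-sorted into 8 mCherry/sfGFP bins and deep-sequenced. PSI runs from 0 (unstable) to 1 (stable); wild type and das1Δ backgrounds, two technical replicates each.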

[2] = tested on: Saccharomyces cerevisiae; conditions: genetic background: wild type; temperature: 30 C
[3] = tested on: Saccharomyces cerevisiae
Experimental: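 MPS profiling in S. cerevisiae of the tFT-X12 degron library: putative degron peptides plus stable controls, 12 aa, fused to the C-terminus of a sfGFP-mCherry timer. Cells are FACS-sorted into 8 mCherry/sfGFP bins and deep-sequenced. PSI runs from 0 (unstable) to 1 (stable). Backgrounds are wild type, das1Δ and doa10Δ at 30 °C, and wild type, das1Δ, cdc34-1 and cdc53-1 at 37 °C; 2-3 technical replicates each.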

[4] = genetic background: das1 deletion
[5] = genetic background: cdc34-1, temperature: 37 C
[6] = genetic background: cdc53-1, temperature: 37 C
[7] = genetic background: das1 deletion, temperature: 30 C
[8] = genetic background: das1 deletion, temperature: 37 C
[9] = genetic background: doa10 deletion, temperature: 30 C
[10] = genetic background: wild type, temperature: 30 C
[11] = genetic background: wild type, temperature: 37 C

Sequence	protein stability index [1, 4]	protein stability index ([1]; genetic background: wild type)	protein stability index [2]	protein stability index [3, 5]	protein stability index [3, 6]	protein stability index [3, 7]	protein stability index [3, 8]	protein stability index [3, 9]	protein stability index [3, 10]	protein stability index [3, 11]
AAEAKEHMQEAN [TIF34 C-terminal 12 aa]	0.732 ± 0.062	0.69 ± 0.059								
AATAKGKGKKKK [RSM27 C-terminal 12 aa]	0.6993 ± 0.005	0.64475 ± 0.00021								
ACELLFENNIDM [PHO81 C-terminal 12 aa]	0.695 ± 0.015	0.7517 ± 0.0037								
ACIFNVATASIP [YGR270C-A C-terminal 12 aa]	0.719 ± 0.036	0.692 ± 0.03								
AFGNGFNSSIRW [NRP1 C-terminal 12 aa]	0.71 ± 0.012	0.68 ± 0.0089								
AFKGHDNSDDKA [RIB2 C-terminal 12 aa]	0.706 ± 0.017	0.666 ± 0.025								
AFKRKKQELGVN [QDR2 C-terminal 12 aa]	0.671 ± 0.013	0.697 ± 0.089								
AFSSNDLLTVHL [BRE1 C-terminal 12 aa]	0.698 ± 0.036	0.673 ± 0.011								
AFTTYRAFVEPN [PMI40 C-terminal 12 aa]	0.72 ± 0.044	0.677 ± 0.0095								
AGSRRLDFRFYH [YOL162W C-terminal 12 aa]	0.678 ± 0.064	0.6607 ± 0.0057								
AHYNNGLQWFSD [EMC4 C-terminal 12 aa]	0.7084 ± 0.0065	0.728 ± 0.014								
AIGNCVQDEEKL [AVL9 C-terminal 12 aa]	0.717 ± 0.0097	0.679 ± 0.035								
AIMAVACNVIFS [AGA1 C-terminal 12 aa]	0.292 ± 0.024	0.315 ± 0.005								
AIWKHGIVEEKI [TMA19 C-terminal 12 aa]	0.695 ± 0.014	0.694 ± 0.026								
AKLFKEIFAYKV [COQ8 C-terminal 12 aa]	0.664 ± 0.0097	0.66 ± 0.019								
AKSLIHLFTSNQ [NRM1 C-terminal 12 aa]	0.694 ± 0.042	0.7334 ± 0.0027								
AKWSISHKSNTG [YIL066W-A C-terminal 12 aa]	0.694 ± 0.0059	0.69 ± 0.037								
ALGEHYNSLHDS [OTU2 C-terminal 12 aa]	0.7 ± 0.016	0.653 ± 0.0071								
ALKKEYEAKKKA [COA3 C-terminal 12 aa]	0.6861 ± 0.0068	0.664 ± 0.0072								
ALPTYTMEYLDI [UTP8 C-terminal 12 aa]	0.72 ± 0.032	0.698 ± 0.035								
ALQVLEERMVNP [YOL107W C-terminal 12 aa]	0.7046 ± 0.003	0.699 ± 0.0077								
WCAMITVFCGSG			0.34 ± 0.016	0.268 ± 0.035	0.29 ± 0.041	0.214 ± 0.037	0.4101 ± 0.0027	0.179 ± 0.015	0.208 ± 0.033	0.3796 ± 0.0026
WCAVRVWFGAAL			0.505 ± 0.014	0.648 ± 0.052	0.676 ± 0.028	0.5731 ± 0.0039	0.693 ± 0.017	0.3927 ± 0.0016	0.424 ± 0.01	0.56132 ± 0.00042

Sequence	protein stability index [1, 4]	protein stability index ([1]; genetic background: wild type)	protein stability index [2]	protein stability index [3, 5]	protein stability index [3, 6]	protein stability index [3, 7]	protein stability index [3, 8]	protein stability index [3, 9]	protein stability index [3, 10]	protein stability index [3, 11]
WCCVFVARFFWL			0.413 ± 0.04	0.416 ± 0.013	0.504 ± 0.013	0.348 ± 0.031	0.499 ± 0.014	0.334 ± 0.0061	0.342 ± 0.011	0.44 ± 0.008
WEISNFFGCFIG			0.428 ± 0.028	0.671 ± 0.031	0.758 ± 0.026	0.683 ± 0.044	0.772 ± 0.017	0.325 ± 0.0037	0.365 ± 0.01	0.552 ± 0.071
WFFTDIVMLVRV			0.273 ± 0.0098	0.126 ± 0.014	0.12 ± 0.044	0.192 ± 0.026	0.277 ± 0.0094	0.237 ± 0.0069	0.193 ± 0.023	0.233 ± 0.018
WFSVFTMSILSR			0.435 ± 0.0096	0.416 ± 0.026	0.479 ± 0.0075	0.338 ± 0.028	0.4963 ± 0.0024	0.334 ± 0.004	0.341 ± 0.018	0.474 ± 0.01
WFWVAVGVVGGG			0.449 ± 0.014	0.496 ± 0.029	0.534 ± 0.022	0.356 ± 0.032	0.5243 ± 0.0031	0.326 ± 0.016	0.358 ± 0.015	0.5 ± 0.0082
WGCIFWFFDVRV			0.386 ± 0.027	0.193 ± 0.0065	0.335 ± 0.015	0.229 ± 0.023	0.416 ± 0.018	0.203 ± 0.0046	0.207 ± 0.025	0.402 ± 0.026
WGGEFLSLTLSS			0.684 ± 0.027	0.732 ± 0.028	0.761 ± 0.018	0.664 ± 0.02	0.7821 ± 0.0073	0.679 ± 0.025	0.683 ± 0.021	0.743 ± 0.025
WGIPRRPTLFIP			0.434 ± 0.015	0.65 ± 0.0098	0.749 ± 0.03	0.658 ± 0.011	0.7417 ± 0.00092	0.296 ± 0.023	0.325 ± 0.035	0.5193 ± 0.0044
WHLLRFETQMFC			0.172 ± 0.049	0.571 ± 0.018	0.7091 ± 0.0027	0.611 ± 0.037	0.712 ± 0.022	0.151 ± 0.028	0.164 ± 0.016	0.337 ± 0.0026
WHVSLRFAFYVF			0.22 ± 0.12	0.2459 ± 0.0022	0.326 ± 0.02	0.235 ± 0.019	0.342 ± 0.011	0.136 ± 0.0056	0.158 ± 0.018	0.263 ± 0.0032
WIVQCCLYVPVQ			0.377 ± 0.0076	0.288 ± 0.011	0.314 ± 0.017	0.25 ± 0.025	0.3619 ± 0.0011	0.212 ± 0.0053	0.237 ± 0.02	0.356 ± 0.024
WIYKIVTYEKKS			0.145 ± 0.049	0.701 ± 0.05	0.701 ± 0.03	0.648 ± 0.041	0.705 ± 0.029	0.633 ± 0.038	0.633 ± 0.036	0.702 ± 0.0082
WLGLFAFRRCLV			0.31 ± 0.018	0.544 ± 0.03	0.583 ± 0.013	0.463 ± 0.018	0.5898 ± 0.0041	0.194 ± 0.012	0.223 ± 0.025	0.3983 ± 0.0017
WLVIWPRKLSTV			0.481 ± 0.0083	0.588 ± 0.039	0.632 ± 0.005	0.477 ± 0.027	0.6179 ± 0.0036	0.359 ± 0.014	0.397 ± 0.022	0.573 ± 0.031
WLVVGGVVLLVV			0.252 ± 0.0089	0.246 ± 0.029	0.28548 ± 0.00015	0.213 ± 0.033	0.395 ± 0.009	0.175 ± 0.0046	0.197 ± 0.026	0.37 ± 0.0047
WRLRIAAVVRSS			0.281 ± 0.028	0.556 ± 0.047	0.655 ± 0.031	0.586 ± 0.011	0.6471 ± 0.0012	0.123 ± 0.0017	0.142 ± 0.021	0.287 ± 0.016
WRVVVSCALHVC			0.085736 ± 1.1e-05	0.123 ± 0.014	0.167 ± 0.0054	0.169 ± 0.017	0.274 ± 0.0034	0.0395 ± 0.017	0.0423 ± 0.009	0.0863 ± 0.026
WSCFLLLLSLSL			0.45 ± 0.0067	0.424 ± 0.056	0.4452 ± 0.0035	0.417 ± 0.039	0.5236 ± 0.0051	0.482 ± 0.013	0.411 ± 0.011	0.496 ± 0.011
WSFAPRLRCSYL			0.809 ± 0.055	0.927 ± 0.0095	0.925 ± 0.012	0.784 ± 0.029	0.883 ± 0.012	0.7642 ± 0.004	0.792 ± 0.048	0.878 ± 0.029
WSMSSPPLLLAS			0.36 ± 0.0058	0.314 ± 0.014	0.301 ± 0.017	0.272 ± 0.017	0.377 ± 0.0019	0.22 ± 0.0085	0.276 ± 0.013	0.349 ± 0.019
WVIWFFVAACLR			0.3339 ± 0.00096	0.219 ± 0.006	0.24 ± 0.018	0.209 ± 0.024	0.347 ± 0.025	0.239 ± 0.0077	0.212 ± 0.022	0.311 ± 0.0079
WVVVGWVGVGFR			0.445 ± 0.029	0.508 ± 0.029	0.548 ± 0.038	0.383 ± 0.027	0.5747 ± 0.0021	0.361 ± 0.019	0.378 ± 0.016	0.55387 ± 0.00053
